Experimental data taken from US20020103123A1.
Several values for one entry are separate records, joined by “and”; a condition that tells them apart may be missing. Identical values can stand only once. Like-named read-outs stand apart in the source and are kept apart here. One block for each substance: values may come before it.

Columns and labels:
[1] = target: T1, rat hypothalamic Y5 receptor (rat); assay: 125I-PYY displacement, COS-7 membranes
T1 sequence: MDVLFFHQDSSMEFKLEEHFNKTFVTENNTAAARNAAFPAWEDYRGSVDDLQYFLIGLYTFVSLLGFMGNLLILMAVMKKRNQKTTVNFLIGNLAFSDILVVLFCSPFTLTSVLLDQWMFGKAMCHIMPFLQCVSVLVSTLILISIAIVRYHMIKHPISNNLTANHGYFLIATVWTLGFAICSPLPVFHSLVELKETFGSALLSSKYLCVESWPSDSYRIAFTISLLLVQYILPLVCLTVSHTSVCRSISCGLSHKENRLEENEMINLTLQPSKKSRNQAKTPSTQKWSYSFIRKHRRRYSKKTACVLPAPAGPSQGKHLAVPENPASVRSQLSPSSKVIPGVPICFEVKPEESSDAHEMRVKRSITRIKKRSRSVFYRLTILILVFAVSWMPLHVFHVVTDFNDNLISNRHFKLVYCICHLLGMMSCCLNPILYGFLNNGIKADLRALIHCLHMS

rat Y2 receptor (rat) [2] = target: rat Y2 receptor (rat) (UniProt Q9ERC0); assay: 125I-PYY displacement, COS-7 membranes
rat Y1 receptor (rat) [3] = target: rat Y1 receptor (rat) (UniProt P21555); assay: 125I-PYY displacement, COS-7 membranes
rat Y4 receptor (rat) [4] = target: rat Y4 receptor (rat) (UniProt Q63447); assay: 125I-PYY displacement, COS-7 membranes
[5] = target: T1, rat hypothalamic Y5 receptor (rat)
[6] = target: membranes from rat hypothalamus; assay: 125I-PYY displacement, rat hypothalamic membranes
[7] = target: human hippocampal Y5 receptor (human)
[8] = target: human hippocampal Y5 receptor (human); assay: 125I-PYY displacement
rat Y4 receptor (rat) [9] = target: rat Y4 receptor (rat) (UniProt Q63447); assay: 125I-PYY displacement, COS-7 membranes; remark: listed apart in the source
[10] = target: human Y2 receptor (human) (UniProt P49146); assay: 125I-PYY displacement, COS-7 membranes
rat Y2 receptor (rat) [11] = target: rat Y2 receptor (rat) (UniProt Q9ERC0); assay: 125I-PYY displacement, COS-7 membranes; remark: listed apart in the source
[12] = target: human Y1 receptor (human) (UniProt P25929); assay: 125I-PYY displacement, COS-7 membranes
[13] = target: T1, rat hypothalamic Y5 receptor (rat); assay: 125I-PYY displacement, COS-7 membranes; remark: listed apart in the source
[14] = target: human hippocampal Y5 receptor (human); assay: 125I-PYY3-36 displacement, LM(tk-) membranes
rat Y1 receptor (rat) [15] = target: rat Y1 receptor (rat) (UniProt P21555); assay: 125I-PYY displacement, COS-7 membranes; remark: listed apart in the source
rat Y4 receptor (rat) [16] = target: rat Y4 receptor (rat) (UniProt Q63447); assay: 125I-PYY displacement, COS-7 membranes; remark: listed apart in the source
[17] = target: human Y2 receptor (human) (UniProt P49146); assay: 125I-PYY displacement, COS-7 membranes; remark: listed apart in the source
rat Y2 receptor (rat) [18] = target: rat Y2 receptor (rat) (UniProt Q9ERC0); assay: 125I-PYY displacement, COS-7 membranes; remark: listed apart in the source
[19] = target: human Y1 receptor (human) (UniProt P25929); assay: 125I-PYY displacement, COS-7 membranes; remark: listed apart in the source
[20] = target: T1, rat hypothalamic Y5 receptor (rat); remark: listed apart in the source
[21] = target: human hippocampal Y5 receptor (human); assay: 125I-PYY displacement, COS-7 membranes
[22] = target: human hippocampal Y5 receptor (human); assay: 125I-PYY displacement, LM(tk-) membranes
[23] = target: membranes from rat hypothalamus; assay: 125I-PYY displacement, rat hypothalamic membranes; high-affinity part of a two-part curve
[24] = target: human Y4 receptor (human) (UniProt P50391); assay: 125I-PYY displacement, COS-7 membranes
[25] = target: T1, rat hypothalamic Y5 receptor (rat); assay: 125I-PYY displacement, COS-7 membranes; remark: listed apart in the source
[26] = target: T1, rat hypothalamic Y5 receptor (rat); assay: time course, 0.08 nM radioligand, room temperature, 10 mM Na+
[27] = target: T1, rat hypothalamic Y5 receptor (rat); assay: saturation binding, isotonic buffer, room temperature, COS-7 membranes
[28] = target: T1, rat hypothalamic Y5 receptor (rat); assay: time course, 0.08 nM radioligand, room temperature, 138 mM Na+
[29] = target: human hippocampal Y5 receptor (human); remark: listed apart in the source
[30] = target: human hippocampal Y5 receptor (human); remark: listed apart in the source
[31] = target: human hippocampal Y5 receptor (human); assay: 125I-PYY displacement, COS-7 membranes; remark: listed apart in the source

Sequence of rat Y4 receptor (rat) (Q63447 whole entry): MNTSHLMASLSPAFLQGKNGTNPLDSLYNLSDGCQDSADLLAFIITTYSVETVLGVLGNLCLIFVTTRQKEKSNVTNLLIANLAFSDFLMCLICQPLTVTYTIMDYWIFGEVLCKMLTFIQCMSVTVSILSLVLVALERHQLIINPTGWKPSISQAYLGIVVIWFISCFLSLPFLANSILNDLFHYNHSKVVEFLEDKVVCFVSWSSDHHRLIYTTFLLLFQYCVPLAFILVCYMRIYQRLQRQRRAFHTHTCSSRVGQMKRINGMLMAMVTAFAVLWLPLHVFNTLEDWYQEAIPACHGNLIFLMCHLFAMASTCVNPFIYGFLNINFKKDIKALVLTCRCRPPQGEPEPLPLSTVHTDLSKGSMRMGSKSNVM

Ki [1]: 8700 nM
Substance: W(nor-L)RF-amide (peptide)

Ki (rat Y2 receptor (rat) [2]): > 1000 nM
Substance: avian PP (peptide)

Ki (rat Y1 receptor (rat) [3]): 0.09 nM
Ki (rat Y2 receptor (rat) [2]): 0.65 nM
Ki [1]: 0.71 nM
Substance: frog NPY (melanostatin) (peptide)

Ki (rat Y1 receptor (rat) [3]): 720 nM
Ki (rat Y4 receptor (rat) [4]): > 1000 nM
Ki (rat Y2 receptor (rat) [2]): > 980 nM
Ki [1]: > 550 nM
Substance: frog PP (rana temporaria) (peptide)

inhibition of forskolin-stimulated cAMP accumulation, EC50 [5]: 2 nM
maximum inhibition of forskolin-stimulated cAMP accumulation (Emax) [5]: 84%
IC50 [6]: 2.3 nM
Substance: human NPY2-36 (from UniProt P01303) (peptide)

Ki (rat Y4 receptor (rat) [4]): 5 nM
Substance: human NPY2-36, P01303 (peptide; other documents disagree on this pair)

Ki (rat Y4 receptor (rat) [4]): > 1000 nM
Substance: human NPY free acid, P01303 (peptide; free carboxylic acid at the carboxy terminus instead of the amide; other documents disagree on this pair)

inhibition of forskolin-stimulated cAMP accumulation, EC50 [7]: 2 nM
Substance: human PP2-36 (from UniProt P01298) (peptide)

% inhibition of cAMP accumulation relative to human NPY [7]: 96%
inhibition of forskolin-stimulated cAMP accumulation, EC50 [7]: 14 nM
Substance: human PP (from UniProt P01298) (peptide)

inhibition of forskolin-stimulated cAMP accumulation, EC50 [5]: 4.9 nM
inhibition of forskolin-stimulated cAMP accumulation, EC50 [7]: 18 nM
Substance: human PYY3-36 (from UniProt P10082) (peptide)

% inhibition of cAMP accumulation relative to human NPY [7]: 111%
inhibition of forskolin-stimulated cAMP accumulation, EC50 [7]: 4.9 nM
IC50 [6]: 1.3 nM
Substance: human PYY (from UniProt P10082) (peptide)

Ki [8]: 18 nM
Ki (rat Y4 receptor (rat) [9]): > 1000 nM
Ki [10]: > 1000 nM
Ki (rat Y2 receptor (rat) [11]): > 1000 nM
Ki [12]: > 1000 nM
Ki [13]: 53 nM
inhibition of forskolin-stimulated cAMP accumulation, EC50 [5]: 9.5 nM
maximum inhibition of forskolin-stimulated cAMP accumulation (Emax) [5]: 72%
inhibition of forskolin-stimulated cAMP accumulation, EC50 [7]: 26 nM
Ki (rat Y1 receptor (rat) [3]): > 1000 nM
Ki (rat Y4 receptor (rat) [4]): > 630 nM
Ki (rat Y2 receptor (rat) [2]): 760 nM
Ki [1]: 35 nM
Ki [14]: 10 nM
Ki (rat Y1 receptor (rat) [15]): > 500 nM
Ki (rat Y4 receptor (rat) [16]): > 500 nM
Ki [17]: > 500 nM
Ki (rat Y2 receptor (rat) [18]): > 500 nM
Ki [19]: > 500 nM
inhibition of forskolin-stimulated cAMP accumulation, EC50 [20]: 7.5 nM and 25 nm
Ki [21]: 35 nM
Ki [22]: 16 nM
Substance: human [D-Trp^32]NPY (from UniProt P01303) (peptide)

inhibition of forskolin-stimulated cAMP accumulation, EC50 [7]: 5.6 nM
Ki [21]: 2 nM
Substance: human [Ile^31, Gln^34]PP (from UniProt P01298) (peptide)

Ki [10]: > 130 nM
inhibition of forskolin-stimulated cAMP accumulation, EC50 [5]: 0.6 nM
maximum inhibition of forskolin-stimulated cAMP accumulation (Emax) [5]: 70%
IC50 [23]: 0.21 nM
inhibition of forskolin-stimulated cAMP accumulation, EC50 [7]: 3 nM
Ki (rat Y1 receptor (rat) [3]): 0.1 nM
Ki (rat Y4 receptor (rat) [4]): 0.59 nM
Ki (rat Y2 receptor (rat) [2]): > 1000 nM
Ki [1]: 1 nM
Substance: human [Leu^31, Pro^34]NPY (from UniProt P01303) (peptide)

Ki [10]: 3.5 nM
Ki [12]: 79 nM
Ki [24]: 120 nM
Ki [13]: 470 nM
inhibition of forskolin-stimulated cAMP accumulation, EC50 [5]: 240 nM
Ki (rat Y1 receptor (rat) [3]): 140 nM
Ki (rat Y4 receptor (rat) [4]): 22 nM
Ki (rat Y2 receptor (rat) [2]): 2.6 nM
Ki [1]: > 260 nM
Ki [14]: 220 nM
Ki [21]: 370 nM
Ki [25]: 260 nM
Ki [22]: 260 nM
Substance: porcine C2-NPY (peptide)

Ki (rat Y4 receptor (rat) [4]): 36 nM
Substance: porcine NPY3-36, P01304 (peptide; other documents disagree on this pair)

Ki (rat Y1 receptor (rat) [3]): 0.25 nM
Ki (rat Y4 receptor (rat) [4]): 0.32 nM
Ki (rat Y2 receptor (rat) [2]): 840 nM
Substance: porcine [Leu^31, Pro^34]NPY (from UniProt P01304) (peptide)

maximal specific binding [26]: 480 fmol/mg
observed association rate (Kobs) [26]: 0.042 min⁻¹
t1/2 of association [26]: 17 min
Kd [27]: 0.072 nM
pKd [27]: 10.1
maximal specific binding [28]: 330 fmol/mg
observed association rate (Kobs) [28]: 0.029 min⁻¹
t1/2 of association [28]: 24 min
Substance: porcine ^125I-[Leu^31, Pro^34]PYY (from UniProt P68005) (peptide)

inhibition of forskolin-stimulated cAMP accumulation, EC50 [5]: 1.8 nM
maximum inhibition of forskolin-stimulated cAMP accumulation (Emax) [5]: 67%
inhibition of forskolin-stimulated cAMP accumulation, EC50 [7]: 2.7 nM
inhibition of forskolin-stimulated cAMP, EC50, LM(tk-) cells [29]: 2.4 nM
inhibition of forskolin-stimulated cAMP, EC50, NIH-3T3 cells [29]: 8.5 nM
maximum inhibition of forskolin-stimulated cAMP (Emax), LM(tk-) cells [29]: 72%
maximum inhibition of forskolin-stimulated cAMP (Emax), NIH-3T3 cells [29]: 42%
intracellular free calcium concentration (Fura-2) [30]: 34 nM
IC50 [6]: 0.82 nM
Substance: rat/human NPY (from UniProt P01303) (peptide)

Ki (rat Y4 receptor (rat) [4]): 1.7 nM
Substance: rat/human NPY, P01303 (peptide; carboxy terminal amide; other documents disagree on this pair)

Ki [10]: 0.17 nM
Ki [31]: 0.46 nM
Ki [12]: 0.11 nM
Ki [24]: 3.2 nM
Ki [13]: 0.31 nM
inhibition of forskolin-stimulated cAMP accumulation, EC50 [5]: 0.92 nM
% inhibition of cAMP accumulation relative to human NPY [7]: 96%
inhibition of forskolin-stimulated cAMP accumulation, EC50 [7]: 4.5 nM
Ki (rat Y1 receptor (rat) [3]): 0.3 nM
Ki (rat Y4 receptor (rat) [4]): 3 nM
Ki (rat Y2 receptor (rat) [2]): 0.16 nM
Ki [1]: 0.33 nM
Ki [14]: 0.63 nM
Ki [21]: 0.27 nM
Substance: salmon PP (peptide)
